For two molecules, Kd results are on record in publication PMC11931385, “Structural and functional analysis of cancer-associated missense variants in the retinoblastoma protein pocket domain” (The Journal of Biological Chemistry, 2025).

No end group written: not given here. TMR = tetramethyl rhodamine dye

Holding throughout (assay): fluorescence polarisation; 37 °C, after the 25 °C reading ramped over 7 min to 37 °C and 2 min incubation; unlabeled Rb^P against 1.5 nM TMR-E2F1^TD or 7.5 nM TMR-E7^LxCxE; 25 mM Tris pH 8.0, 200 mM NaCl, 1 mM DTT, 0.1% Tween-20; apparent Kd
Settings in all cases: both partners purified

One assay addresses T1, Rb^P A490V (human, UniProt P06400 380-788, A490V).
T1 construct: also called variant 17
T1 sequence (looked up): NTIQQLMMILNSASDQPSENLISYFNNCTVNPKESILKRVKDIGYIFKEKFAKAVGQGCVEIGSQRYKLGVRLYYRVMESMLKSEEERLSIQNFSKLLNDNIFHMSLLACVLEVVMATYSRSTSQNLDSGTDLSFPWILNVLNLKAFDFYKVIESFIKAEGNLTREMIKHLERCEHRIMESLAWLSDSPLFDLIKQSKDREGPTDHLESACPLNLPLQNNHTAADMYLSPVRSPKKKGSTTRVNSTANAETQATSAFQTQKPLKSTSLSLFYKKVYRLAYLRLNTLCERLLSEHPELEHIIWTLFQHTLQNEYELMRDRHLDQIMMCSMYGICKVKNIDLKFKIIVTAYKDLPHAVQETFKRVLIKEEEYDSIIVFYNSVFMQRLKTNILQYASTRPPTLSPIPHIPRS

The target in a further assay is T2, Rb^P Y606C (human, UniProt P06400 380-788, Y606C).
T2 construct: also called variant 37
T2 sequence (looked up): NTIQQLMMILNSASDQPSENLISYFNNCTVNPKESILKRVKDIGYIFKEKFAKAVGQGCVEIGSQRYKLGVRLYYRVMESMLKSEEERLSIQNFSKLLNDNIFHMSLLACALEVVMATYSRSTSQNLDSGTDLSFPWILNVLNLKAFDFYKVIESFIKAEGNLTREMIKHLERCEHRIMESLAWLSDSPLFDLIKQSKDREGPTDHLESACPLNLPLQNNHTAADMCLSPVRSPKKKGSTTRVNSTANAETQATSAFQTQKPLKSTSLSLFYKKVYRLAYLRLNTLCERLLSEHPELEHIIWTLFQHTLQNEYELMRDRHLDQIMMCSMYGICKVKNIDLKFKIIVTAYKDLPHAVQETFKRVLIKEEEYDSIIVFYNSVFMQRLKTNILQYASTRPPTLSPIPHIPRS

The target in a further assay is T3, Rb^P R451C (human, UniProt P06400 380-788, R451C).
T3 construct: also called variant 5
T3 sequence (looked up): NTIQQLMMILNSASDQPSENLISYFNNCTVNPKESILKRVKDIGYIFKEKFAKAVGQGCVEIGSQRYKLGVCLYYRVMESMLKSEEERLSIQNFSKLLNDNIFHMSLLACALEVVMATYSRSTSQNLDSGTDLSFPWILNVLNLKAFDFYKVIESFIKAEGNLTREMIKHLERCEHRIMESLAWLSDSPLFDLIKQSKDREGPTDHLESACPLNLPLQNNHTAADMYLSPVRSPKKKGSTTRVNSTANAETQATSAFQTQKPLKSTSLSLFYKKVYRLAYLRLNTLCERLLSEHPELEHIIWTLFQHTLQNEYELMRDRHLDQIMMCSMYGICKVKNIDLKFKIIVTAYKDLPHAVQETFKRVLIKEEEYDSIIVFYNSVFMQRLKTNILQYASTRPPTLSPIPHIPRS

Another assay deals with T4, Rb^P R763T (human, UniProt P06400 380-788, R763T).
T4 construct: also called variant 75
T4 sequence (looked up): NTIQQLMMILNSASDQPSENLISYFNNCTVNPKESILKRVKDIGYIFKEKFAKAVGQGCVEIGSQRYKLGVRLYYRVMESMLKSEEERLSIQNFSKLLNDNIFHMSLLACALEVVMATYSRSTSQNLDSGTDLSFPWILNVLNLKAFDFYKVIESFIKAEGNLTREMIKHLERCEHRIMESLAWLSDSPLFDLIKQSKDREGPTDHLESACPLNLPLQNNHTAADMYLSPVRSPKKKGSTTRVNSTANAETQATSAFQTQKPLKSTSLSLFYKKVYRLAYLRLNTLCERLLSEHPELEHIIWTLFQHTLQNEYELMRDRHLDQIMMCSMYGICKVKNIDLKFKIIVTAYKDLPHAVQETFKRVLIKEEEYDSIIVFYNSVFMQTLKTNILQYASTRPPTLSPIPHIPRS

For the next assay, the target named is T5, Rb^P K462E (human, UniProt P06400 380-788, K462E).
T5 construct: also called variant 8
T5 sequence (looked up): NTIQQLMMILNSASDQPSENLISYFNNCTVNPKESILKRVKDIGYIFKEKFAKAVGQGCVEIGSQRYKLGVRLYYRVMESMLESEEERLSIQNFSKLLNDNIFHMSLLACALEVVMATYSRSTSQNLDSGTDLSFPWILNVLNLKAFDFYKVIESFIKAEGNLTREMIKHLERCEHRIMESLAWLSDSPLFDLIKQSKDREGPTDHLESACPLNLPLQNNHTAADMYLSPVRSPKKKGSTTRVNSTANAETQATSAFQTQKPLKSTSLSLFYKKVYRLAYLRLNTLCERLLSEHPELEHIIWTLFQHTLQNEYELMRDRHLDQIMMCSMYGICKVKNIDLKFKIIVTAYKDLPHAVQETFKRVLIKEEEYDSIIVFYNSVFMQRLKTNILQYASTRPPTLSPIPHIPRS

B1: TMR-E2F1^TD, peptide of the E2F1 transactivation domain (peptide)
peptide: {TMR}-GEGIRDLFDCDFGDLTPLD
notes: also called E2F^TD; source: synthetic peptide, bought: GenScript
Turning to B1, the Kd was 87 nM in the assay with Rb^P A490V; 27 nM with Rb^P Y606C; 51 nM with Rb^P R451C; 59 nM with Rb^P R763T; 67 nM with Rb^P K462E.

B2: TMR-E7^LxCxE, LxCxE peptide of the E7 oncoprotein from HPV (peptide)
peptide: DLYCYEQLN
modifications: also: TMR label, position not given here
notes: source: synthetic peptide, bought: GenScript
Consider B2, for which the Kd with Rb^P A490V was found to be 33 nM; with Rb^P Y606C, 23 nM; with Rb^P R451C, 19 nM; with Rb^P R763T, 35 nM; with Rb^P K462E, 32 nM.
